The source of these data is patent US20160115234A1 (Biogen, published 2016).

The target of experiment [1] is T1, human GPIIb/IIIa (Calbiochem Cat No. 528240) (human, UniProt P08514 32-1039; P05106 27-788).
T1 construct: Bought purified protein coated on ELISA plates; How the α/β subunit specificity ELISA was set up is not described; also called αIIbβ3; glycoprotein IIb/IIIa
As to the kind of experiment: ELISA, hybridoma supernatant. A general note: ELISA stands for enzyme-linked immunosorbent assay.

The target in experiment [2] is T2, GPIIb/IIIa on human platelets (human, UniProt P08514 32-1039; P05106 27-788).
T2 construct: Native receptor on gel-purified human platelets or on platelets in citrated human whole blood; also called GPIIb/IIIa receptor
As to the kind of experiment: flow cytometry on platelets, hybridoma supernatant (signal higher than in ELISA). In general terms: A flow cytometer gives signals particle by particle.

Experiment [3] deals with T2, GPIIb/IIIa on human platelets. As to the kind of experiment: flow cytometry, protein spiked into citrated human whole blood, FITC anti-FVII on CD42b-gated platelets.
For experiment [4], the target named is T3, GPIIb/IIIa nanodiscs (recombinant biotinylated, HPC4-tagged GPIIb/IIIa) (human, UniProt P08514 32-1039; P05106 27-788).
T3 construct: Transiently expressed in HEK293 cells, purified, and put into nanodiscs with scaffold protein and phospholipids; It carries a tag for in vivo biotinylation and an HPC4 tag; also called GPIIb/IIIa receptor; biotinylated GPIIb/IIIa receptor
As to the kind of experiment: SPR, biotinylated GPIIb/IIIa nanodiscs on a streptavidin chip.

Substitutions are numbered along the chain they refer to.

B1: 34D10 (antibody, V domains shown)
VH: EVKLVESGGGLVKPGGSLKLSCAASGFTFSAYAMSWVRQTPEKRLEWVASISSGGTTYYPDSVKRRFTISRDNARNILYLQMSSLRSEDTAMYYCTRGGDYGYALDYWGQGTSVTVSS
VL: ENVLTQSPAIMSASLGEKVTMSCRASSSVNYMYWYQQKSDASPKLWIYYTSNLAPGVPARFSGSGSGNSYSLTISSMEGEDAATYYCQQFSSSPWTFGGGTKLEIKR
notes: Mouse hybridoma monoclonal tested as supernatant
In the case of B1, the binding result in experiment [1] was “binds”.

B2: 4B11 (antibody, V domains shown)
VH: B1 VH with A31S, E46A, T56N, T57I, Y59F, R65G, N73D, S83R, T96A, L105M
VL: B1 VL with S22N, Y48F, T101S
notes: as for B1
For B2, in experiment [1], the binding result was “binds”.

B3: 36A8 (antibody, V domains shown)
VH: B1 VH with K3R, A31T, S52N, S53G, T56S, R65G, S83R, T96A
VL: B1 VL with S22N, Y48F, T101S
notes: as for B1
B3: in experiment [1], the binding result is recorded as “binds”.

B4: 28C2 (antibody, V domains shown)
VH: QVTLKASGPGIVQPSQTLSLTCSFSGFSLNTSGMGVGWIRQPSGKGLEWLAHIWWDDDKRYNPALKSRLTISKDTSNNQIFLKIASVDTADTATYYCARSHYYGTFYFDYWGQGTTLTVSS
VL: DVQITQSPSYLAASPGETITINCRASKSISKYLAWYQEKPGTTYKLLIYSGSTLQSGIPSRFSGSGSGTDFTLTISSLEPEDFAMYYCQQHIEYPWTFGGGTKLEIKR
notes: as for B1
With B4, in experiment [1], the binding result is “binds”.

B5: 9D6 (antibody, V domains shown)
VH: QVTLKESGPGILQPSQTLSLTCSFSGFSLSTSGMGVGWIRQSSGKGLEWLAHIWWDDDKRYNPTLKSRLTISKDTSNNQVFLKIANMDTADIATYYCARSHYNGTFYFDFWGQGITLTVSS
VL: B4 VL with T42K, Y44N, S77T
notes: as for B1
On to B5, for which the binding result in experiment [1] is listed as “binds”.

B6: 18F7 (antibody, V domains shown)
VH: QVQLKESGPGLVAPSQSLSITCTVSGFSLTSYGVSWVRQPPGKGLEWLGIIWGDGSTNYHSVLKSRLSISKDNSKSQVFLKLNSLQTDDTATYYCAKQDFDVWGAGTTVTVSS
VL: DVQMIQSPFSLSASLGDIVTMTCQASQGTSINLNWFQQKPGKAPKLLIYGVSNLEDGVPSRFSGSRYGTDFTLTIGSLEDEDMATYFCLQHSYLPYTFGGGTKLEIKR
notes: as for B1
Take B6: the binding result in experiment [2] and in experiment [1] was “binds” throughout.

B7: Recombinant FVIIa (enzyme)
chain 1: ANAFLEELRPGSLERECKEEQCSFEEAREIFKDAERTKLFWISYSDGDQCASSPCQNGGSCKDQLQSYICFCLPAFEGRNCETHKDDQLICVNENGGCEQYCSDHTGTKRSCRCHEGYSLLADGVSCTPTVEYPCGKIPILEKRNASKPQGR
chain 2: IVGGKVCPKGECPWQVLLLVNGAQLCGGTLINTIWVVSAAHCFDKIKNWRNLIAVLGEHDLSEHDGDEQSRRVAQVIIPSTYVPGTTNHDIALLRLHQPVVLTDHVVPLCLPERTFSERTLAFVRFSLVSGWGQLLDRGATALELMVLNVPRLMTQDCLQQSRKVGDSPNITEYMFCAGYSDGSKDSCKGDSGGPHATHYRGTWYLTGIVSWGQGCATVGHFGVYTRVSQYIEWLQKLMRSEPRPGVLLRAPFP
notes: domain: light chain of FVIIa;domain: heavy chain of FVIIa; Untargeted control; also called rFVIIa; recombinant FVIIa alone (no targeting moiety)
Take B7: the binding result in experiment [3] and in experiment [4] was “no binding” throughout.

B8: 28F4 (antibody, V domains shown)
VH: EVQLVESGGDLVKPGGSLKLSCAASGFTFSNYGMSWVRQTPDKRLEWVATISSGGTYTYYPDSVKGQFTIFRDNAKNTLYLQMSSLKSEDTAMYYCTRRDYDYEGFAYWGQGTLVTVS
VL: DIVLTQSPATLSVTPGDSVSLSCRASQSISNNLHWYQQKSHESPRLLIKYASHSISGIPSRFSGSGSGTDFTLSINSVETEDFGMYFCQQSNNWPFTFGSGTKLEIKR
notes: as for B1
Turning to B8, the binding result in experiment [2] and in experiment [1] was “binds” in each case.

B9: 1H6 (antibody, V domains shown)
VH: QVQLQQSGAELVRPGTSVKVSCKASGYAFTNYLIEWVKQRPGQGLEWIGVINPGSGGTNYNEKFKGKATLTADKSSSTAYMHLSSLTSDDSAVYFCARGRYEWYFDVWGAGTTVTVSS
VL: DIQMTQTTSSLSASLGDRVTISCRASQDITNYLNWYQRKPDGTVKLLIYYTSRLHSGVPSRFSGSGSGTDYSLTISNLEQEDIATYFCQQGYTLPYTFGGGTKLEIKR
notes: as for B1
In the case of B9, in experiment [1], the binding result is reported as “binds”.

B10: 12B2 (antibody, V domains shown)
VH: QVQLQQSGAELTKPGASVKISCKATGYTFSSYWIEWVKQRPGHGLEWIGEILPGSGITKYNDKFKGKATFTADTSSNTAYMQLSSLTSEDSAVYSCARLISYYYAMDYWGQGTSVTVSS
VL: B9 VL with T30S, R38Q, Y92N, Y96P
notes: as for B1
Turning to B10, in experiment [1], the binding result is listed as “binds”.

B11: 38A8 (antibody, V domains shown)
VH: B9 VH with V37I, H82Q
VL: B9 VL with T30S, Q37L, R38Q, T74S
notes: as for B1
For the molecule B11, in experiment [1], the binding result is recorded as “binds”.
